Key:
SV40 VP1 = biological target: T1, SV40 VP1 (Betapolyomavirus macacae, UniProt P03087); assay: STD NMR; assay type: binding; conditions: 19-22 µM protein, 1 mM ligand, pH 7.5, 283 K, D2O
T1 construct: recombinant VP1 pentamer, detected with anti-poly-histidine antibody

[1] = biological target: BKPyV VP1 pentamer (30-300) F75V (BK polyomavirus (BKPyV)); assay: SEC; gel filtration of purified mutant pentamers; data not shown
[2] = biological target: BKPyV VP1 pentamer (30-300) F75W (BK polyomavirus (BKPyV)); assay: as above
[3] = biological target: BKPyV VP1 pentamer (30-300) H138A (BK polyomavirus (BKPyV)); assay: as above
[4] = biological target: BKPyV VP1 pentamer (30-300) L62W (BK polyomavirus (BKPyV)); assay: as above
[5] = biological target: BKPyV VP1 pentamer (30-300) S274A (BK polyomavirus (BKPyV)); assay: as above
[6] = biological target: BKPyV VP1 pentamer (30-300) S274A/T276A (BK polyomavirus (BKPyV)); assay: as above
[7] = biological target: BKPyV VP1 pentamer (30-300) T276A (BK polyomavirus (BKPyV)); assay: as above
[8] = biological target: BKPyV VP1 pentamer (amino acids 30-300 of BKPyV VP1, His-tag cleaved) (BK polyomavirus (BKPyV)); assay: crystal structure; sitting drop vapor diffusion at 20°C, 16–18% PEG 3,350, 0.1 M HEPES pH 7.5, 0.25 M LiCl, protein with 20 mM DTT; unliganded and soaked with 20 mM GD3 oligosaccharide

CC(=O)N[C@H]1[C@H](O[C@@H]2[C@H](O[C@]3(C(=O)O)C[C@H](O)[C@@H](NC(C)=O)[C@H]([C@H](O)[C@H](O)CO)O3)[C@@H](O)[C@H](O[C@H]3[C@H](O)[C@@H](O)C(O)O[C@@H]3CO)O[C@@H]2CO)O[C@H](CO)[C@H](O)[C@@H]1O[C@@H]1O[C@H](CO)[C@H](O)[C@H](O)[C@H]1O (stereo partly drawn) [GM1, GM1 oligosaccharide] was tested, and the “STD NMR” value (SV40 VP1) was “as efficient as for the SV40 VP1-GM1 pair, which was included for comparison”.

Work on “BKPyV VP1 pentamer (30-300) F75V (domain or fragment)” yielded a stoichiometry N [1] of 5.

For “BKPyV VP1 pentamer (30-300) F75W (domain or fragment)”, the stoichiometry N [2] was 5.

“BKPyV VP1 pentamer (30-300) H138A (domain or fragment)” showed a stoichiometry N [3] of 5.

“BKPyV VP1 pentamer (30-300) L62W (domain or fragment)” gave a stoichiometry N [4] of 5.

In the case of “BKPyV VP1 pentamer (30-300) S274A (domain or fragment)”, the stoichiometry N [5] is reported as 5.

Work on “BKPyV VP1 pentamer (30-300) S274A/T276A (domain or fragment)” yielded a stoichiometry N [6] of 5.

With “BKPyV VP1 pentamer (30-300) T276A (domain or fragment)” the stoichiometry N [7] was 5.

For “BKPyV VP1 pentamer (amino acids 30-300 of BKPyV VP1, His-tag cleaved) (domain or fragment)”, the stoichiometry N [8] was 5.

Source: PMC3795024, “A Structure-Guided Mutation in the Major Capsid Protein Retargets BK Polyomavirus” (PLoS Pathogens, 2013)
